Source: doi:10.1101/2022.08.03.502720 (bioRxiv, 2022)

Biological target: the molecule itself
Test: DEER

B1: CueR_19F58_L60H_G64H mutant (natural protein, E. coli)
chain: MNISDVAKITGLTSKAIRFYEEKGLVTPPMRSENGYRTYTQQHLNELTLLRQARQVGFNHEESHELVNLFNDPQRHSADVKRRTLEKVAEIERHIEELQSMRDQLLALANACPGDDSADCPIIENLSGCCHHRAG
modifications: 19F-phenylalanine at F58; Cu(II)-NTA spin label bound at the dHis site (L60H, G64H)
binding result: binds
